Reference: paper PMC8287954, “Assembly of higher-order SMN oligomers is essential for metazoan viability and requires an exposed structural motif present in the YG zipper dimer” (Nucleic Acids Research, 2021)
Positions count from the first letter of the chain named. Numbers in names are those of the source. Where “and” joins values, the source holds several entries; their conditions need not be identical. Equal entries are not always repeated.

B1: MBP-spSMN YG box (112–152) A141Y, A145C (domain or fragment, Schizosaccharomyces pombe, UniProt Q09808 112-152, looked up)
chain: PPPIRGLTYDETYKKLIMSWYYAGYYTGLYEGLCKSEQRKD
notes: S. pombe SMN, residues 112-152; SMN residues fused to the penultimate Thr of E. coli MBP with a Gly-Ser linker; also called A145C mutant with an A141Y substitution; source: E. coli BL21(DE3), purified (amylose resin); not shown: MBP, N-terminal, kept
B2: Drosophila melanogaster Gemin2 (natural protein, UniProt Q9VVX0 1-245, looked up)
chain: MQHEPEDQTFQLQALEICEPDSSFDPQKPPESGEEYLMHMFYERKRCPAVVTKRSSKIRNNTGNTTLEMLDNPELPPFKCLLPTPEWRDEQVKSFQAARSQVLVLRKELANNNYDQSGEPPLTSDQEKWKEFCRNQQPLLSTLLHLTQNDLELLLEMLSKWLQDPNTTVDLLHDVWLARWLYATLVCLHLPLEPHVFSTLRYIARTCIHLRNQLKEDEVQRAAPYNLLLTLTVQVFAQNDFKDYI
notes: Drosophila melanogaster Gemin2 (dmGemin2); also called dmGemin2; dmG2; source: E. coli BL21(DE3), purified (Ni-NTA, chitin beads, Superdex 200)
B3: Schizosaccharomyces pombe SMN•Gemin2 complex (complex)
chain 1: MDQSQKEVWDDSELRNAFETALHEFKKYHSIEAKGGVSDPDSRLDGEKLISAARTEESISKLEEGEQMINQQTETTLEGDTHIQQFADNKGLSDEKPETRAAETHQEFMEVPPPIRGLTYDETYKKLIMSWYYAGYYTGLAEGLAKSEQRKD
chain 2: MPSKRKRNPLQYQTSGSLDEETNQRSAFPQIDNNSASESLEYDIPLDGLDYLATVREEARKLVPFVAARREPETRETIPLRKLEIEAGKKSFDPFLRYLLNIIDKEGERLEQYMESSSLDASILPKNLQQWRVYIEHKAPCWAILAVVDLATVLEILESLSSWLEKDAIDLQSQWIFCFCYKLPELLNGEDISTLRSVLKSLRSTHTSFPALQMSASALQAVLVYRYGQKDLFQT
notes: S. pombe SMN (Smn1p); S. pombe Gemin2; also called spSMN•G2; wild-type Smn1p; source: bacterial co-expression, purified as previously described (24)
B4: spSMN(A145Q)•Gemin2 (complex, Schizosaccharomyces pombe)
chain 1: B3 chain 1 with A145Q
chain 2: B3 chain 2
notes: S. pombe SMN (Smn1p); S. pombe Gemin2; also called spA145Q; source: recombinant; yeast SMN•G2 complexes purified as previously described (24)
B5: spSMN(Y137H)•Gemin2 (complex, Schizosaccharomyces pombe)
chain 1: B3 chain 1 with Y137H
chain 2: B3 chain 2
notes: S. pombe SMN (Smn1p); S. pombe Gemin2; also called spY137H; source: recombinant; yeast SMN•G2 complexes purified as previously described (24)
B6: spSMN(G143V)•Gemin2 (complex, Schizosaccharomyces pombe)
chain 1: B3 chain 1 with G143V
chain 2: B3 chain 2
notes: S. pombe SMN (Smn1p); S. pombe Gemin2; also called spG143V; source: recombinant; yeast SMN•G2 complexes purified as previously described (24)
B7: spSMN(A141Q)•Gemin2 (complex, Schizosaccharomyces pombe)
chain 1: B3 chain 1 with A141Q
chain 2: B3 chain 2
notes: S. pombe SMN (Smn1p); S. pombe Gemin2; also called spA141Q; source: recombinant; yeast SMN•G2 complexes purified as previously described (24)
B8: MBP-hsSMN^252-294(C289A, N283C) (domain or fragment, human, UniProt Q16637 252-294, looked up)
chain: DSLDDADALGSMLISWYMSGYHTGYYMGFRQCQKEGRASHSLN
notes: human SMN YG box, residues 252-294; also called hsSMN^N283C; source: E. coli BL21(DE3), purified (amylose resin); not shown: MBP, N-terminal, kept
B9: MBP-hsSMN^252-294(C289A, S262C) (domain or fragment, human, UniProt Q16637 252-294, looked up)
chain: B8 chain with S11C, C32N
notes: human SMN YG box, residues 252-294; source: E. coli BL21(DE3), purified (amylose resin); not shown: MBP, N-terminal, kept
B10: MBP-hsSMN^252-294(C289A, T274C) (domain or fragment, human, UniProt Q16637 252-294, looked up)
chain: B8 chain with T23C, C32N
notes: human SMN YG box, residues 252-294; also called hsT274C; source: E. coli BL21(DE3), purified (amylose resin); not shown: MBP, N-terminal, kept
B11: MBP-hsSMN^252-294(C289A, Y277C) (domain or fragment, human, UniProt Q16637 252-294, looked up)
chain: B8 chain with Y26C, C32N
notes: human SMN YG box, residues 252-294; also called hsY277C; source: E. coli BL21(DE3), purified (amylose resin); not shown: MBP, N-terminal, kept
B12: MBP-hsSMN^252-294(C289A, R281C) (domain or fragment, human, UniProt Q16637 252-294, looked up)
chain: B8 chain with R30C, C32N
notes: as for B9
B13: MBP-dmSMN^186-220 (domain or fragment, Drosophila melanogaster, UniProt Q9VV74 186-220, looked up)
chain: GAEQDFVAMLTAWYMSGYYTGLYQGKKEASTTSGK
notes: The SEC-SAXS methods print 189-220 for this fusion; also called MBP-dmSMN^189–220; source: expressed from pETDuet at 37°C, purified (amylose resin, Superdex-200); not shown: MBP, N-terminal, kept
B14: Hs^1-275-GCN4(IL) chimera•Gemin2 (complex)
chain 1: not shown
chain 2: MAWVPAESAVEELMPRLLPVEPCDLTEGFDPSVPPRTPQEYLRRVQIEAAQCPDVVVAQIDPKKLKRKQSVNISLSGCQPAPEGYSPTLQWQQQQVAQFSTVRQNVNKHRSHWKSQQLDSNVTMPKSEDEEGWKKFCLGEKLCADGAVGPATNESPGIDYVQIGFPPLLSIVSRMNQATVTSVLEYLSNWFGERDFTPELGRWLYALLACLEKPLLPEAHSLIRQLARRCSEVRLLVDSKDDERVPALNLLICLVSRYFDQRDLADEPS
B15: Drosophila melanogaster SMN (natural protein, UniProt Q9VV74 1-226, looked up)
chain: MSDETNAAVWDDSLLVKTYDESVGLAREALARRLADSTNKREEENAAAAEEEAGEISATGGATSPEPVSFKVGDYARATYVDGVDYEGAVVSINEEKGTCVLRYLGYENEQEVLLVDLLPSWGKRVRREQFLIAKKDEDEQLSRPKASAGSHSKTPKSSRRSRISGGLVMPPMPPVPPMIVGQGDGAEQDFVAMLTAWYMSGYYTGLYQGKKEASTTSGKKKTPKK
notes: Drosophila melanogaster SMN (dmSMN); In the reconstitution the HFS tag was cut off with Ulp1 after dmGemin2 was added; also called dmSMN; source: E. coli BL21(DE3), purified (Ni-NTA after lysis in guanidine•HCl, urea wash)

What was measured:
[1] = biological target: the molecule itself; test: cross-linking; disulfide cross-linking of single-cysteine MBP-YG box fusions, 5 μM, 20 mM Tris-HCl pH 7.4, 200 mM NaCl, 1 mM EDTA, 10 mM maltose, 160 μM diamide, 1 h, 20°C; non-reducing SDS-PAGE
[2] = biological target: the molecule itself; test: AUC; sedimentation equilibrium, 4°C, 20 mM Tris-HCl pH7.4, 200 mM NaCl, 5 mM DTT; monomer to dimer
[3] = biological target: the molecule itself; test: SEC-MALS; Superdex 200 10/300 GL, 0.5 ml/min, room temperature (20°C), 50 mM HEPES-NaOH pH 7.5, 250 mM NaCl, 5 mM DTT; self-association of the SMN•G2 unit, (SMN•G2)n
[4] = biological target: the molecule itself; test: not stated; shown in Supplementary Figure S2; method not given
[5] = biological target: the molecule itself; test: SEC-MALS; Superdex 200 10/300 GL, 0.5 ml/min, room temperature (20°C), 50 mM HEPES-NaOH pH 7.5, 250 mM NaCl, 5 mM DTT; self-association of the SMN•G2 unit, (SMN•G2)n; remark: listed apart in the source
[6] = biological target: B2; test: SEC; complex reconstituted from separately purified proteins, two molar excess of dmGemin2, HFS tag cut with Ulp1, second Ni-NTA pass, Superdex 200 16/60 at 20°C, 20 mM Na/KPO4 pH 7.0, 300 mM NaCl, 1 mM DTT; conditions: both partners purified
[7] = biological target: the molecule itself; test: AUC; sedimentation velocity, 20 mM HEPES–NaOH pH 7.5, 300 mM NaCl, 0.1 mM TCEP, 0.16–1.0 mg/ml, 40 000 rpm; 25°C and 4°C (smaller species at 4°C)

**Q.** Does B1 bind [1]?
**A.** binds

**Q.** B2 was tested. Which Kd [2] did it give?
**A.** 33.4 ± 5 µM

**Q.** Which “stoichiometry N” value [3] does the source give for B3 here?
**A.** 2 and 4

**Q.** Does B4 bind [3]?
**A.** binds

**Q.** Does B5 bind [3]?
**A.** binds

**Q.** Does B6 bind [3]?
**A.** binds

**Q.** Does B7 bind [3]?
**A.** binds

**Q.** Does B8 bind [1]?
**A.** binds

**Q.** Does B9 bind [1]?
**A.** binds

**Q.** Does B10 bind [1]?
**A.** binds

**Q.** Does B11 bind [1]?
**A.** binds

**Q.** Does B12 bind [1]?
**A.** binds

**Q.** B13 was tested. Which “stoichiometry N” value [4] did it give?
**A.** 4 and 8

**Q.** Which “stoichiometry N” value [5] does the source give for B14 here?
**A.** 2

**Q.** Does B15 bind [6]?
**A.** binds

**Q.** Does B15 bind [7]?
**A.** binds
